Assay results from US20260035452A1 (THE UNIVERSITY OF BIRMINGHAM, priority 2022, published 2026).
Marks after values point to notes of the source that are not given here.

Tests used:
[1] = Haematological investigations; type: in vivo; details: mice, 100 μg/mouse
Experimental: To assess the neutralising activity of Ab-IPL-IL-17™, CD-1 mice were injected i.p. with 100 μg/mouse of Ab-IPL-IL-17™, MAB421 or secukinumab as positive controls. After 30 min, an i.p. injection of 10 μg/mouse of IL-17A, IL-17F or IL-17A/F heterodimer was administered. After 2 h blood was collected by intracardiac puncture and serum levels of (A) IL-17A, (B) IL-17F or (C) IL-17A/F heterodimer were quantified by Elisa. (C-F) For the evaluation of immunogenic effects CD-1 mice were injected i.p. with 100 μg of IgG1 isotype antibody (vehicle) or IL-17 neutralising antibodies (bimekizumab, secukinumab, MAB421 or Ab-IPL-IL-17™). In the selected time-point (2 h, 24 h, 72 h, 7 days, 14 days and 21 days) total IgG, IgG1, lymphocytes and platelets levels were determined by Elisa and haematological blood count test, respectively. Data are presented as mean±S.D. for n=5 mice per group. Statistical analysis was conducted by one or two-way ANOVA followed by Bonferroni's for multiple comparisons. *P≤0.05, **P≤0.01, ***P≤0.001 vs IL-17 group; ^#P≤0.05, ^##P≤0.01, ^###P≤0.001, ^####P≤0.0001 vs vehicle group.
Standard laboratory procedures were used for blood sampling and measurements (95). Haematological investigations, for all experimental conditions, including blood count test, leukocyte, and sidereal formula were performed on citrated and not-anticoagulated blood samples, respectively. Serological tests were performed by CELL-DYN Sapphire purchased from Abbott S.R.L. (Milan, Italy). All procedures were conducted under strictly aseptic conditions.
Standard laboratory procedures were used for blood sampling and measurements. Haematological investigations, for all experimental conditions, including blood count test, leukocyte, and sidereal formula were performed on citrated and not-anticoagulated blood samples, respectively. Serological tests were performed by CELL-DYN Sapphire purchased from Abbott S.R.L. (Milan, Italy). All procedures were conducted under strictly aseptic conditions.

patients = details: cited from earlier work

For “Bimekizumab: IL-17 neutralising antibody (reference)”, the “GRA (Granulocytes)” value ([1]; 2 h) was 0.24 ± 0.11 10^3/μL, the “HCT (Hematocrit)” value ([1]; 2 h) was 29.96 ± 2.29% and the “HGB (Hemoglobin)” value ([1]; 2 h) was 9.88 ± 1.02 g/dL. For the same substance, the “MCH (Mean Corpuscular Hemoglobin)” value ([1]; 2 h) was 16.98 ± 1.38 pg, the “MCV (Mean Cell Volume)” value ([1]; 2 h) was 61.22 ± 5.70 fL and the MHCH ([1]; 2 h) was 30.00 ± 3.06 g/dL. For the same substance, the MID ([1]; 2 h) was 0.36 ± 0.24 10^3/μL, the “MPV (Mean Platelet Volume)” value ([1]; 2 h) was 4.64 ± 0.86 fL and the “PCT (Plateletcrit)” value ([1]; 2 h) was 0.26 ± 0.07%. The “PWD (Platelet Distribution Width)” value ([1]; 2 h) was 16.80 ± 1.42%, the “RBC (Red Blood Cells)” value ([1]; 2 h) was 5.84 ± 1.62 10^6/μL and the “RDW (Red blood cells Distribution Width)” value ([1]; 2 h) was 18.82 ± 1.75%. For the same substance, the “WBC (White Blood Cells)” value ([1]; 2 h) was 3.90 ± 0.91 10^3/μL, the “GRA (Granulocytes)” value ([1]; 24 h) was 0.22 ± 0.16 10^3/μL and the “HCT (Hematocrit)” value ([1]; 24 h) was 29.56 ± 2.16%. For the same substance, the “HGB (Hemoglobin)” value ([1]; 24 h) was 9.08 ± 1.55 g/dL, the “MCH (Mean Corpuscular Hemoglobin)” value ([1]; 24 h) was 18.92 ± 1.42 pg and the “MCV (Mean Cell Volume)” value ([1]; 24 h) was 62.32 ± 10.33 fL. The MHCH ([1]; 24 h) was 30.70 ± 3.18 g/dL, the MID ([1]; 24 h) was 0.42 ± 0.31 10^3/μL and the “MPV (Mean Platelet Volume)” value ([1]; 24 h) was 5.00 ± 1.12 fL. For the same substance, the “PCT (Plateletcrit)” value ([1]; 24 h) was 0.26 ± 0.06%, the “PWD (Platelet Distribution Width)” value ([1]; 24 h) was 16.04 ± 1.30% and the “RBC (Red Blood Cells)” value ([1]; 24 h) was 4.63 ± 0.99 10^6/μL. For the same substance, the “RDW (Red blood cells Distribution Width)” value ([1]; 24 h) was 18.42 ± 1.18%, the “WBC (White Blood Cells)” value ([1]; 24 h) was 4.60 ± 1.70 10^3/μL and the “GRA (Granulocytes)” value ([1]; 72 h) was 0.30 ± 0.10 10^3/μL. For the same substance, the “HCT (Hematocrit)” value ([1]; 72 h) was 22.04 ± 4.37** %, the “HGB (Hemoglobin)” value ([1]; 72 h) was 7.10 ± 1.38* g/dL and the “MCH (Mean Corpuscular Hemoglobin)” value ([1]; 72 h) was 21.46 ± 2.04* pg. The “MCV (Mean Cell Volume)” value ([1]; 72 h) was 80.98 ± 9.17 fL, the MHCH ([1]; 72 h) was 30.62 ± 5.57 g/dL and the MID ([1]; 72 h) was 0.42 ± 0.22 10^3/μL. For the same substance, the “MPV (Mean Platelet Volume)” value ([1]; 72 h) was 7.96 ± 1.95**** fL, the “PCT (Plateletcrit)” value ([1]; 72 h) was 0.17 ± 0.03% and the “PWD (Platelet Distribution Width)” value ([1]; 72 h) was 17.94 ± 2.99%. For the same substance, the “RBC (Red Blood Cells)” value ([1]; 72 h) was 3.79 ± 1.02* 10^6/μL, the “RDW (Red blood cells Distribution Width)” value ([1]; 72 h) was 17.12 ± 2.05% and the “WBC (White Blood Cells)” value ([1]; 72 h) was 4.84 ± 2.49 10^3/μL. The “GRA (Granulocytes)” value ([1]; 7 d) was 0.26 ± 0.11 10^3/μL, the “HCT (Hematocrit)” value ([1]; 7 d) was 22.48 ± 3.74* % and the “HGB (Hemoglobin)” value ([1]; 7 d) was 8.10 ± 1.33 g/dL. For the same substance, the “MCH (Mean Corpuscular Hemoglobin)” value ([1]; 7 d) was 21.22 ± 3.74 pg, the “MCV (Mean Cell Volume)” value ([1]; 7 d) was 72.78 ± 8.77 fL and the MHCH ([1]; 7 d) was 29.36 ± 5.05 g/dL. For the same substance, the MID ([1]; 7 d) was 0.46 ± 0.18 10^3/μL, the “MPV (Mean Platelet Volume)” value ([1]; 7 d) was 6.78 ± 1.09* fL and the “PCT (Plateletcrit)” value ([1]; 7 d) was 0.22 ± 0.07%. The “PWD (Platelet Distribution Width)” value ([1]; 7 d) was 16.04 ± 2.71%, the “RBC (Red Blood Cells)” value ([1]; 7 d) was 4.18 ± 0.93 10^6/μL and the “RDW (Red blood cells Distribution Width)” value ([1]; 7 d) was 18.14 ± 3.00%. For the same substance, the “WBC (White Blood Cells)” value ([1]; 7 d) was 5.08 ± 1.37 10^3/μL, the “GRA (Granulocytes)” value ([1]; 14 d) was 0.20 ± 0.12 10^3/μL and the “HCT (Hematocrit)” value ([1]; 14 d) was 28.36 ± 3.19%. The “HGB (Hemoglobin)” value ([1]; 14 d) was 9.06 ± 1.84 g/dL, the “MCH (Mean Corpuscular Hemoglobin)” value ([1]; 14 d) was 17.48 ± 1.38 pg and the “MCV (Mean Cell Volume)” value ([1]; 14 d) was 61.10 ± 9.83 fL. The MHCH ([1]; 14 d) was 29.96 ± 4.45 g/dL, the MID ([1]; 14 d) was 0.40 ± 0.10 10^3/μL and the “MPV (Mean Platelet Volume)” value ([1]; 14 d) was 5.66 ± 0.92 fL. For the same substance, the “PCT (Plateletcrit)” value ([1]; 14 d) was 0.26 ± 0.05%, the “PWD (Platelet Distribution Width)” value ([1]; 14 d) was 16.02 ± 1.63% and the “RBC (Red Blood Cells)” value ([1]; 14 d) was 5.81 ± 1.41 10^6/μL. The “RDW (Red blood cells Distribution Width)” value ([1]; 14 d) was 18.26 ± 2.28%, the “WBC (White Blood Cells)” value ([1]; 14 d) was 3.00 ± 0.68 10^3/μL and the “GRA (Granulocytes)” value ([1]; 21 d) was 0.22 ± 0.13 10^3/μL. The “HCT (Hematocrit)” value ([1]; 21 d) was 29.20 ± 2.70%, the “HGB (Hemoglobin)” value ([1]; 21 d) was 10.06 ± 1.27 g/dL and the “MCH (Mean Corpuscular Hemoglobin)” value ([1]; 21 d) was 17.96 ± 1.57 pg. The “MCV (Mean Cell Volume)” value ([1]; 21 d) was 62.92 ± 6.53 fL, the MHCH ([1]; 21 d) was 30.50 ± 4.52 g/dL and the MID ([1]; 21 d) was 0.32 ± 0.16 10^3/μL. The “MPV (Mean Platelet Volume)” value ([1]; 21 d) was 5.02 ± 0.76 fL, the “PCT (Plateletcrit)” value ([1]; 21 d) was 0.28 ± 0.03% and the “PWD (Platelet Distribution Width)” value ([1]; 21 d) was 16.24 ± 1.83%. For the same substance, the “RBC (Red Blood Cells)” value ([1]; 21 d) was 6.37 ± 1.11 10^6/μL, the “RDW (Red blood cells Distribution Width)” value ([1]; 21 d) was 18.02 ± 1.34% and the “WBC (White Blood Cells)” value ([1]; 21 d) was 3.32 ± 1.18 10^3/μL.

For “brodalumab: licensed mAb in the IL-17-IL-17R pathway”, the “side effect: intestinal inflammation” value (patients; patients with IBD) is given as “enhanced intestinal inflammation” and the “side effect: suicidal thoughts” value (patients; some patients with psoriasis) is given as “suicidal thoughts in some patients with psoriasis”.
